Substrate: NCCc1c[nH]cn1
Conditions: Saccharomyces cerevisiae
Description: Activity at yeast recombinant CA expressed in Escherichia coli

B1: Carbonic anhydrase (Saccharomyces cerevisiae S288c), P53615 (protein)
chain: MSATESSSIFTLSHNSNLQDILAANAKWASQMNNIQPTLFPDHNAKGQSPHTLFIGCSDSRYNENCLGVLPGEVFTWKNVANICHSEDLTLKATLEFAIICLKVNKVIICGHTDCGGIKTCLTNQREALPKVNCSHLYKYLDDIDTMYHEESQNLIHLKTQREKSHYLSHCNVKRQFNRIIENPTVQTAVQNGELQVYGLLYNVEDGLLQTVSTYTKVTPK
kcat: 19.6 ×10⁵ /s
